Common to all, as to test: ITC
On the technique in general: Isothermal titration calorimetry measures the heat released or taken up as one component is titrated into another.

Test [1] has as its target T1, ZER1 (residues 469–766) (human, UniProt Q7Z7L7 469-766).
T1 chain: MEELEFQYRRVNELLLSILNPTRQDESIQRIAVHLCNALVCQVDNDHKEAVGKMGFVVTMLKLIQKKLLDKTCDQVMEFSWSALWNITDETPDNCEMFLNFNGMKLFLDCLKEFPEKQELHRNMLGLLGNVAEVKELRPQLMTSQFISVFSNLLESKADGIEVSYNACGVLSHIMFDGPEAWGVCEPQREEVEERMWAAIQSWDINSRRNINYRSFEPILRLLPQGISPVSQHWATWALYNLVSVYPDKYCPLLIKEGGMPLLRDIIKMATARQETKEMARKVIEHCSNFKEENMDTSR

Test [2] concerns the target ZYG11B (residues 490–728) (UniProt Q9C0D3 490-728).
Test [3] addresses T2, ZER1 (residues 469–766) N553A (human, UniProt Q7Z7L7 469-766, N553A).
Test [4] has as its target T1, ZER1 (residues 469–766).
Test [5] concerns the target ZYG11B (residues 490–728) N523A (UniProt Q9C0D3 490-728, N523A).
The target in test [6] is T2, ZER1 (residues 469–766) N553A. This is another data set of the same source.

Like-named read-outs stand apart in the source and are kept apart here.

For orientation: Kd means the equilibrium constant for the complex coming apart. Low values mean higher affinity, high ones lower affinity.

ZYG11B (residues 490–728) N523A, sequence (Q9C0D3 other isoform, or with tags, fused parts or gaps N523A | N523A): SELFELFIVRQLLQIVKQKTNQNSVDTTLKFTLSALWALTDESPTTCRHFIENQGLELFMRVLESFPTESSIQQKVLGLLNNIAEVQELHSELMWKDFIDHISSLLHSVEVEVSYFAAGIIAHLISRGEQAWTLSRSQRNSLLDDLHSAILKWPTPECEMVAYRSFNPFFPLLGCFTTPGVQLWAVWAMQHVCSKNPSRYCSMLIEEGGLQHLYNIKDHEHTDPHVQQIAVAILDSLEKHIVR
T2 sequence (Q7Z7L7 other isoform, or with tags, fused parts or gaps N553A | N553A): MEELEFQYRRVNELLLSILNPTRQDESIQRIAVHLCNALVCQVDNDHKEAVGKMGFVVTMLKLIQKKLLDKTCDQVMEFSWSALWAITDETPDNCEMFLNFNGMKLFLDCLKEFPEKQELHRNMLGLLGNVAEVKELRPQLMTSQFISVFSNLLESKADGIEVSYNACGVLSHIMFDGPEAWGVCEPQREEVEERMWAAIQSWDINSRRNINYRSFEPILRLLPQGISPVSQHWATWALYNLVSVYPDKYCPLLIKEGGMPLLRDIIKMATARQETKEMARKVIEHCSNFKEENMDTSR
ZYG11B (residues 490–728), sequence (Q9C0D3 other isoform, or with tags, fused parts or gaps): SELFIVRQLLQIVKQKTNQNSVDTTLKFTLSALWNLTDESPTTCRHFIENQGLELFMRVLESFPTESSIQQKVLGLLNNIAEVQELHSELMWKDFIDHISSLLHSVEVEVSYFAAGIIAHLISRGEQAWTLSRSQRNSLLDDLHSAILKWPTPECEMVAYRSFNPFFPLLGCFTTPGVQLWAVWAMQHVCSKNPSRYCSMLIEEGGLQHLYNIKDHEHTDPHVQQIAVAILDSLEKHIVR

B1: SFLHVGQD peptide (peptide)
peptide: SFLHVGQD
modifications: Printed N-terminus MEEL is read as start Met plus native residues from 469 (by analogy with SELF in ZYG11B); C-terminal His tag of pNIC-CH left out
For the molecule B1, binding with ZER1 (residues 469–766) [1] was put at a Kd of 1.3 µM. In other words, the single-digit micromolar range.

B2: AFLHVGQD peptide (peptide)
peptide: AFLHVGQD
modifications: Printed N-terminus MEEL is read as start Met plus native residues from 469 (by analogy with SELF in ZYG11B); C-terminal His tag of pNIC-CH left out
In turn, B2 registered a Kd with ZER1 (residues 469–766) [1] of 1.6 µM.

B3: AFLHVGQD peptide (peptide)
peptide: AFLHVGQD
modifications: Printed N-terminus SELF is read as vector Ser plus native E490-L491-F492 (numbering from the 7XYW entity, 485-728 starting AQLGTELF); His-SUMO tag left out
B3: in test [2], the Kd was found to be 7.1 µM.

B4: AFLHVGQD peptide (peptide)
peptide: AFLHVGQD
modifications: N-terminus MEEL read as start Met plus native residues from 469; His tag left out
The molecule B4 returned a Kd in test [3] of 7.6 µM.

B5: CFLHVGQD peptide (peptide)
peptide: CFLHVGQD
modifications: Printed N-terminus MEEL is read as start Met plus native residues from 469 (by analogy with SELF in ZYG11B); C-terminal His tag of pNIC-CH left out
Molecule B5 registered a Kd with ZER1 (residues 469–766) [1] of 3.9 µM.

B6: TFLHVGQD peptide (peptide)
peptide: TFLHVGQD
modifications: N-terminus MEEL read as start Met plus native residues from 469; His tag left out
B6 registered a Kd in test [3] of 7.9 µM.

B7: free H2A peptide (sequence: SGRGKQGGKA) (peptide)
peptide: SGRGKQGGKA
modifications: Printed N-terminus MEEL is read as start Met plus native residues from 469 (by analogy with SELF in ZYG11B); C-terminal His tag of pNIC-CH left out
Take B7: binding with ZER1 (residues 469–766) [4] was put at a Kd of 3.8 µM.
The molecule SFLHVGQD registered a Kd in test [5] of 4.9 µM.

B8: CFLHVGQD peptide (peptide)
peptide: CFLHVGQD
modifications: Printed N-terminus SELF is read as vector Ser plus native E490-L491-F492 (numbering from the 7XYW entity, 485-728 starting AQLGTELF); His-SUMO tag left out
Molecule B8 had a Kd in test [2] of 3 µM. That is a single-digit micromolar value.
As for AFLHVGQD, the Kd in test [5] was > 50 µM.

B9: SFLHVGQD peptide (peptide)
peptide: SFLHVGQD
modifications: N-terminus MEEL read as start Met plus native residues from 469; His tag left out
With B9, the dissociation constant (Kd) in test [6] came to 7.1 µM. This counts as single-digit micromolar.

B10: GFLHVGQD peptide (peptide)
peptide: GFLHVGQD
modifications: Printed N-terminus SELF is read as vector Ser plus native E490-L491-F492 (numbering from the 7XYW entity, 485-728 starting AQLGTELF); His-SUMO tag left out
On to B10, for which the Kd in test [2] stood at 2.5 µM.

B11: GFLHVGQD peptide (peptide)
peptide: GFLHVGQD
modifications: Printed N-terminus MEEL is read as start Met plus native residues from 469 (by analogy with SELF in ZYG11B); C-terminal His tag of pNIC-CH left out
Regarding B11, the Kd with ZER1 (residues 469–766) [1] stood at 4.2 µM.

B12: SFLHVGQD peptide (peptide)
peptide: SFLHVGQD
modifications: Printed N-terminus SELF is read as vector Ser plus native E490-L491-F492 (numbering from the 7XYW entity, 485-728 starting AQLGTELF); His-SUMO tag left out
In turn, B12 returned a Kd in test [2] of 6.8 µM.
The molecule CFLHVGQD showed a Kd in test [5] of 2.9 µM. That is a single-digit micromolar value.

B13: TFLHVGQD peptide (peptide)
peptide: TFLHVGQD
modifications: Printed N-terminus MEEL is read as start Met plus native residues from 469 (by analogy with SELF in ZYG11B); C-terminal His tag of pNIC-CH left out
Molecule B13 showed a Kd with ZER1 (residues 469–766) [1] of 3.1 µM.

These data come from PMC9741652 (2022).
